B1: C10orf62 (parent)
chain: TSECPSDKDKSPESHKAKNESWIK

Variants of: B1
Test: protein stability index of a GFP-peptide fusion (GPS, HEK-293T) (PSI 1-6); higher = more stable
Details: c terminus: a fixed tail appended
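Note: lentivirally expressed fusions sorted by FACS into six bins by GFP to DsRed ratio, PSI derived from sequencing read proportions per bin multiplied by bin number.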

Row | Variant | protein stability index
1 | TSECPSDKDKSPESNKAKNESWIK [H15N] | 2.69
2 | TSECPSDKDKSPESYKAKNESWIK [H15Y] | 3.35
3 | TSECPSDKDKSPESTKAKNESWIK [H15T] | 2.99
4 | TSECPSDKDKSPESIKAKNESWIK [H15I] | 4.07
5 | TSECPSDKDKSPESWKAKNESWIK [H15W] | 3.33
6 | TSECPSDKDKSPESSKAKNESWIK [H15S] | 3.61
7 | TSECPSDKDKSPESVKAKNESWIK [H15V] | 3.88
8 | TSECPSDKDKSPESAKAKNESWIK [H15A] | 4.12
9 | TSECPSDKDKSPESKKAKNESWIK [H15K] | 4.06
10 | TSECPSDKDKSPESHKAKNESWCK [I23C] | 2.89
11 | TSECPSDKDKSPESHKAKNESWWK [I23W] | 5.11
12 | TSECPSDKDKSPESHKAKNESWDK [I23D] | 5.72
13 | TSECPSDKDKSPESHKAKNESWGK [I23G] | 5.32
14 | TSECPSDKDKSPESHKASNESWIK [K18S] | 4.15
15 | TSECPSDKDKSPESHKANNESWIK [K18N] | 3.6
16 | TSECPSDKDKSPESHKAQNESWIK [K18Q] | 3.9
17 | TSECPSDKDKSPESHKAPNESWIK [K18P] | 3.74
18 | TSECPSDKDKSPESHKAVNESWIK [K18V] | 3.56
19 | TSECPSDKDKSPESHKALNESWIK [K18L] | 4.18
20 | TSECPSDKDKSPESHKACNESWIK [K18C] | 4.37
21 | TSECPSDKDKSPESHKAANESWIK [K18A] | 3.67
22 | TPECPSDKDKSPESHKAKNESWIK [S2P] | 3.17
23 | TWECPSDKDKSPESHKAKNESWIK [S2W] | 3.64
24 | TFECPSDKDKSPESHKAKNESWIK [S2F] | 3.12

Row | Variant | protein stability index
25 | TRECPSDKDKSPESHKAKNESWIK [S2R] | 4.43
26 | TAECPSDKDKSPESHKAKNESWIK [S2A] | 2.63
27 | TYECPSDKDKSPESHKAKNESWIK [S2Y] | 3.47
28 | TSEIPSDKDKSPESHKAKNESWIK [C4I] | 3.92
29 | TSEQPSDKDKSPESHKAKNESWIK [C4Q] | 3.52
30 | TSEYPSDKDKSPESHKAKNESWIK [C4Y] | 3.15
31 | TSESPSDKDKSPESHKAKNESWIK [C4S] | 2.46
32 | TSEMPSDKDKSPESHKAKNESWIK [C4M] | 3.79
33 | TSEHPSDKDKSPESHKAKNESWIK [C4H] | 3.34
34 | TSECPSDKDKHPESHKAKNESWIK [S11H] | 3.01
35 | TSECPSDKDKCPESHKAKNESWIK [S11C] | 3.31
36 | TSECPSDKDKNPESHKAKNESWIK [S11N] | 3.7
37 | TSECPSDKDKDPESHKAKNESWIK [S11D] | 2.29
38 | TSECPSDKDKIPESHKAKNESWIK [S11I] | 3.2
39 | TSECPSDKDKLPESHKAKNESWIK [S11L] | 3.04
40 | TSECPSDKDKEPESHKAKNESWIK [S11E] | 3.67
41 | TSECPSDADKSPESHKAKNESWIK [K8A] | 3.08
42 | TSECPSDRDKSPESHKAKNESWIK [K8R] | 3.95
43 | TSECPSDHDKSPESHKAKNESWIK [K8H] | 3.15
44 | TSECPSDNDKSPESHKAKNESWIK [K8N] | 3.31
45 | TSECPSDLDKSPESHKAKNESWIK [K8L] | 3.38
46 | TSECPSDDDKSPESHKAKNESWIK [K8D] | 3.35
47 | TSECPSDPDKSPESHKAKNESWIK [K8P] | 3.38
48 | TSECPSDEDKSPESHKAKNESWIK [K8E] | 4.41

Row | Variant | protein stability index
49 | TSECPSDCDKSPESHKAKNESWIK [K8C] | 3.52
50 | TSECPSDMDKSPESHKAKNESWIK [K8M] | 3.52
51 | TSECPSDQDKSPESHKAKNESWIK [K8Q] | 3.52
52 | TSECPSDKDKSPEDHKAKNESWIK [S14D] | 4.49
53 | TSECPSDKDKSPERHKAKNESWIK [S14R] | 3.82
54 | TSECPSDKDKSPENHKAKNESWIK [S14N] | 3.95
55 | TSECPSDKDKSPEKHKAKNESWIK [S14K] | 2.82
56 | TSECPSDKDKSPEPHKAKNESWIK [S14P] | 3.2
57 | TSECPSDKDKSPEVHKAKNESWIK [S14V] | 3.98
58 | TSECPSDKDKSPETHKAKNESWIK [S14T] | 3.41
59 | TSECPSDKDKSPESHKAKNEIWIK [S21I] | 4.77
60 | TSECPSDKDKSPESHKAKNECWIK [S21C] | 4.11
61 | TSECPSDKDKSPESHKAKNELWIK [S21L] | 3.65
62 | TSECPSDKDKSPESHKAKNEAWIK [S21A] | 4.61
63 | TSECPSDKDKSPESHKAKNENWIK [S21N] | 5.12
64 | TSECPSDKDKSPESHKAKNEEWIK [S21E] | 5.3
65 | TSECPSDKDKSPESHKAKNEDWIK [S21D] | 5.57
66 | TSECPSDKDKSPESHKAKNEHWIK [S21H] | 4.95
67 | TSECPSDKDKSPESHKAKNETWIK [S21T] | 3.97
68 | TSECPSDKDKSPASHKAKNESWIK [E13A] | 2.77
69 | TSECPSDKDKSPKSHKAKNESWIK [E13K] | 3.08
70 | TSECPSDKDKSPCSHKAKNESWIK [E13C] | 3.35
71 | TSECPSDKDKSPVSHKAKNESWIK [E13V] | 2.77
72 | TSECPSDKDKSPLSHKAKNESWIK [E13L] | 2.21

Row | Variant | protein stability index
73 | TSECPSDKDKSPMSHKAKNESWIK [E13M] | 2.65
74 | TSECPSDKDKSPPSHKAKNESWIK [E13P] | 2.63
75 | TSDCPSDKDKSPESHKAKNESWIK [E3D] | 2.73
76 | TSICPSDKDKSPESHKAKNESWIK [E3I] | 2.14
77 | TSGCPSDKDKSPESHKAKNESWIK [E3G] | 3.73
78 | TSCCPSDKDKSPESHKAKNESWIK [E3C] | 3.01
79 | TSSCPSDKDKSPESHKAKNESWIK [E3S] | 3.34
80 | TSRCPSDKDKSPESHKAKNESWIK [E3R] | 3.21
81 | TSHCPSDKDKSPESHKAKNESWIK [E3H] | 2.84
82 | TSYCPSDKDKSPESHKAKNESWIK [E3Y] | 2.73
83 | TSKCPSDKDKSPESHKAKNESWIK [E3K] | 2.92
84 | TSECPSDKDKSPESHDAKNESWIK [K16D] | 4.2
85 | TSECPSDKDKSPESHWAKNESWIK [K16W] | 3.33
86 | TSECPSDKDKSPESHYAKNESWIK [K16Y] | 3.6
87 | TSECPSDKDKSPESHEAKNESWIK [K16E] | 4.94
88 | TSECPSDKDKSPESHTAKNESWIK [K16T] | 4.35
89 | TSECPSDKDKSPESHSAKNESWIK [K16S] | 3.79
90 | TSECPSDKDKSPESHMAKNESWIK [K16M] | 3.85
91 | TSECPSDKDKSPESHPAKNESWIK [K16P] | 4.62
92 | TSECPSDKDKSPESHGAKNESWIK [K16G] | 3.58
93 | TSECPSDKDKSIESHKAKNESWIK [P12I] | 3.21
94 | TSECPSDKDKSNESHKAKNESWIK [P12N] | 3.3

Reference: the supplement of paper PMC10567573
